Source: publication PMC4669440

Experiment: micro-CT of femur
Conditions: glycan lost; control: WT mice

B1: Dentin matrix protein 1 (DMP1): S89G (protein)
parent chain: MKTVILLVFLWGLSCALPVARYHNTESESSEERTGDLAGSPPPPTNSESSEESQASPEGQANSDHTDSSESGEELGYDRGQYRPAGGLSKSTGTGADKEDDEDDSGDDTFGDEDNDLGPEEGQWGGPSKLDSDEDSTDTTQSSEDSTSQENSAQDTPSDSKDHDSEDEADSRPEAGDSTQDSESEEQRVGGGSEGESSHGDGSEFDDEGMQSDDPESTRSDRGHARMSSAGIRSEESKGDHEPTSTQDSDDSQSVEFSSRKSFRRSHVSEEDYRGELTDSNSRETQSDSTEDTASKEESRSESQEDTAESQSQEDSPEGQDPSSESSEEAGEPSQESSSESQEGVTSESRGDNPDNTSQAGDQEDSESSEEDSLNTFSSSESQSTEEQADSESNESLSLSEESQESAQDGDSSSQEGLQSQSASTESRSQESQSEQDSRSEEDSDSQDSSRSKEESNSTGSASSSEEDIRPKNMEADSRKLIVDAYHNKPIGDQDDNDCQDGY
  other: bone material density: increases
